In patent US20240209088A1:
Where “and” joins values, the source holds several entries; their conditions need not be identical. Equal entries are not always repeated.

Experiments:
[1] = target: full-length human CD4 on cells (human) (UniProt P01730); assay: flow cytometry of human PBMCs, donor 2, labeled anti-CD4 antibody with anti-CD3-FITC
[2] = target: full-length human CD4 on cells (human) (UniProt P01730); assay: flow cytometry of human PBMCs, donor 3, labeled anti-CD4 antibody with anti-CD3-FITC
[3] = target: full-length human CD4 on cells (human) (UniProt P01730); assay: flow cytometry of human PBMCs, donor 2, with anti-CD3-FITC; c (nM) ~1
[4] = target: full-length human CD4 on cells (human) (UniProt P01730); assay: flow cytometry of human PBMCs, donor 3, with anti-CD3-FITC; c (nM) ~1
[5] = target: full-length human CD4 on cells (human) (UniProt P01730); assay: flow cytometry of human PBMCs, donor 1, with anti-CD3-FITC; c (nM) ~1
[6] = target: full-length human CD4 on cells (human) (UniProt P01730); assay: flow cytometry of human PBMCs, donor 1, labeled anti-CD4 antibody with anti-CD3-FITC
[7] = target: full-length human CD4 on cells (human) (UniProt P01730); assay: flow cytometry of human PBMCs, donor 1, labeled Nb with anti-CD3-FITC
[8] = target: full-length human CD4 on cells (human) (UniProt P01730); assay: flow cytometry of human PBMCs, donor 1, labeled Nb with anti-CD3-FITC; the same panel in Fig. 8A prints 0.62
[9] = target: full-length human CD4 on cells (human) (UniProt P01730); assay: flow cytometry of human PBMCs, donor 3, labeled Nb with anti-CD3-FITC
[10] = target: full-length human CD4 on cells (human) (UniProt P01730); assay: flow cytometry of human PBMCs, donor 2, labeled Nb with anti-CD3-FITC
[11] = target: full-length human CD4 on cells (human) (UniProt P01730); assay: flow cytometry of human PBMCs, donor 1, labeled Nb with anti-CD3-FITC; the same panel in Fig. 3A prints 0,82
[12] = target: full-length human CD4 on cells (human) (UniProt P01730); assay: flow cytometry of human PBMCs, donor 1, labeled Nb with anti-CD3-FITC; remark: listed apart in the source

Substance | percent of cells in the CD3+ CD4+ quadrant [1] [%] | percent of cells in the CD3- CD4+ quadrant [1] [%] | percent of cells in the CD3+ CD4+ quadrant [2] [%] | percent of cells in the CD3- CD4+ quadrant [2] [%] | Frequency CD3+ CD4+ (%) [3] [%] | Frequency CD3+ CD4+ (%) [4] [%] | Frequency CD3+ CD4+ (%) [5] [%] | percent of cells in the CD3+ CD4+ quadrant [6] [%] | percent of cells in the CD3- CD4+ quadrant [6] [%] | percent of cells in the CD3+ CD4+ quadrant [7] [%] | percent of cells in the CD3- CD4+ quadrant [8] [%] | percent of cells in the CD3+ CD4+ quadrant [9] | percent of cells in the CD3- CD4+ quadrant [9] | percent of cells in the CD3+ CD4+ quadrant [10] | percent of cells in the CD3- CD4+ quadrant [10] | percent of cells in the CD3- CD4+ quadrant [11] [%] | percent of cells in the CD3+ CD4+ quadrant [12] [%]
anti-human CD4 antibody RPA-T4 | 27 | 22.4 | 24.3 | 43.4 | 26.2 | 22.8 | 32.7 | 33.7 | 21.7 | – | – | – | – | – | – | – | –
non-specific fluorescently labeled GFP-binding Nb (VHH) | – | – | – | – | – | – | – | – | – | 1.39 | 0.82 | 0.03% and 0.95% | 0.16% and 1.36% | 0.03% and 0.26% | 0.14% and 0.36% | 0.62 | 0.13
